Molecular target: T1, human FSH (follicle stimulating hormone) (human, UniProt P01215 25-116; P01225 19-129)
T1 construct: also called purified human FSH; human FSH in PDB ID 4AY9
Assay: thermal shift assay (Sypro-Orange), antibody 1.5 µg/µL with or without human FSH 0.5 µg/µL
Experimental: Next, 215 different anti-FSH antibody formulations comprising different combinations of salt, detergent and sugars were tested for thermal stability. The thermal shift assay used a fluorescent reporter, Sypro-Orange (Protein Thermal Shift Dye Kit, ThermoFisher, Catalog #4461146), to detect hydrophobic domains that are exposed following the heat-induced unfolding of globular proteins. anti-FSH antibodies (1.5 μg/μL), either in a test formulation or in PBS, were incubated with or without human FSH (0.5 μg/μL) at room temperature for 30 minutes, with fluorescence captured sequentially at 0.3° C. increments using a StepOne Plus Thermocycler (Applied Biosystems). Tm was calculated based on the inflection point of the melt curve, and thermal shift was derived from ΔTₘ=TₘA−TₘB.
This testing yielded an anti-FSH antibody formulation comprising a stock solution of 2 mg/mL in 20 mM phosphate, 0.001% (v/v) Tween-20, 1 mM NaCl, and 260 mM sucrose (pH=6.58). […] The binding of formulated anti-FSH antibodies to purified human FSH was tested. A ΔTₘ of 3.1° C. of the Fab, and not the Fc region, established greater thermal stability due to FSH binding (FIG. 8C).

T1 sequence (P01215 25-116, chain 1 of 2): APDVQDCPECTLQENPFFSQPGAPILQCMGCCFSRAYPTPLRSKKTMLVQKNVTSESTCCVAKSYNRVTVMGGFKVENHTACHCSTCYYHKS
T1 sequence (P01225 19-129, chain 2 of 2): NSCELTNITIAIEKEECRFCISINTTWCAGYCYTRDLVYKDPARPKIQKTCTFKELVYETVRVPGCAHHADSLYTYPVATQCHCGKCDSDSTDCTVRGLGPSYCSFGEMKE

B1: humanized monoclonal anti-FSH antibody Hu6 (antibody, V domains shown)
VH: QVQLQESGPGLVKPSQTLSLTCTVSGFSITSDYAWNWIRQPPGKGLEWIGSIFSSGSINYNPSLKSRVTISRDTSKNQFSLKLSSVTAADTAVYYCARGGTGTDYWGQGTLVTVSS
VL: DIQMTQSPSSLSASVGDRVTITCRASQDISNYLSWYQQKPGKAIKLLIYYTSRLHSGVPSRFSGSGSGTDYTLTISSLQPEDFATYFCQQGHTLPPTFGGGTKVEIK
notes: also called MS-Hu6; formulated anti-FSH antibodies
With B1 the “ΔTm of the Fab region on FSH binding” value was 3.1 °C.

Source: patent publication US20250243269A1 (ICAHN SCHOOL OF MEDICINE AT MOUNT SINAI, published 2025)
